Molecular target: the molecule itself
Assay: SEC; analytical gel filtration of the TEV-cleaved fusion protein on a Superdex 200 Increase 10/300 column

Protein	stoichiometry N
TH1(MBP): recombinant human tyrosine hydroxylase isoform 1, purified on amylose resin as His6-MBP-TH1 and cleaved by TEV protease (enzyme, residues glycine and alanine left in front of the starting methionine after removal of the fusion partner (told in words); tyrosine hydroxylase isoform 1 (TH1), human, 497 residues (Met1-Gly497); cDNA from pET-TH cloned into pET-MBP-1a; extra glycine in position 2 from cloning; numbers count on: human TH1; Iron-containing preparation (0.25 mol/mol subunit), no cobalt; After cleavage the chain is …) not shown	4
TH1(ZZ): recombinant human tyrosine hydroxylase isoform 1, purified on TALON resin as His6-ZZ-TH1 and cleaved by TEV protease (enzyme, residues glycine and alanine left in front of the starting methionine after removal of the fusion partner (told in words); tyrosine hydroxylase isoform 1 (TH1), human, 497 residues (Met1-Gly497); cDNA from pET-TH cloned into pET-ZZ-1a; extra glycine in position 2 from cloning; numbers count on: human TH1; Contains cobalt from the TALON resin (0.70 mol/mol subunit); After cleavage the chain is the …) not shown	4
